Laboratory results as given in patent US20150239933A1.
Values joined by “and” are separate entries in the source; they are usually repeats but may differ in a detail not shown here. Equal entries are not always repeated.

Assays:
[1] = target: Porcine tubulin dimer (porcine); assay: SPR Biacore T200, tubulin dimer immobilised, 1:1 model; mean of two experiments
[2] = target: Human recombinant TUBB3 (human) (UniProt Q13509); assay: SPR Biacore T200, TUBB3 amine-coupled to CM5, gp120 3.13-100 nM as analyte, 1:1 model; one of two experiments
[3] = target: Porcine tubulin dimer (porcine); assay: SPR Biacore T200, tubulin dimer amine-coupled to CM5, gp120 3.13-100 nM as analyte, 1:1 model; one of two experiments
[4] = target: assembled microtubules (containing ~25% of TUBB3) (porcine) (UniProt F1S6M7); assay: SPR Biacore T200, assembled MTs amine-coupled to CM5, gp120 3.13-100 nM as analyte, 1:1 model; one of two experiments
[5] = target: Human recombinant TUBB3 (human) (UniProt Q13509); assay: SPR Biacore T200, TUBB3 immobilised, 1:1 model; mean of two experiments
[6] = target: assembled microtubules (containing ~25% of TUBB3) (porcine) (UniProt F1S6M7); assay: SPR Biacore T200, assembled MTs immobilised, 1:1 model; mean of two experiments
[7] = target: Porcine tubulin dimer (porcine); assay: SPR Biacore T200, 60 sec injection of 100 nM over immobilised tubulin dimer, reference-subtracted
[8] = target: Human recombinant TUBB3 (human) (UniProt Q13509); assay: SPR Biacore T200, 60 sec injection of 100 nM over immobilised tubulin β-3, reference-subtracted
[9] = target: assembled microtubules (containing ~25% of TUBB3) (porcine) (UniProt F1S6M7); assay: SPR Biacore T200, 60 sec injection of 100 nM over immobilised microtubules, reference-subtracted

Sequence of Human recombinant TUBB3 (human) (Q13509 whole entry): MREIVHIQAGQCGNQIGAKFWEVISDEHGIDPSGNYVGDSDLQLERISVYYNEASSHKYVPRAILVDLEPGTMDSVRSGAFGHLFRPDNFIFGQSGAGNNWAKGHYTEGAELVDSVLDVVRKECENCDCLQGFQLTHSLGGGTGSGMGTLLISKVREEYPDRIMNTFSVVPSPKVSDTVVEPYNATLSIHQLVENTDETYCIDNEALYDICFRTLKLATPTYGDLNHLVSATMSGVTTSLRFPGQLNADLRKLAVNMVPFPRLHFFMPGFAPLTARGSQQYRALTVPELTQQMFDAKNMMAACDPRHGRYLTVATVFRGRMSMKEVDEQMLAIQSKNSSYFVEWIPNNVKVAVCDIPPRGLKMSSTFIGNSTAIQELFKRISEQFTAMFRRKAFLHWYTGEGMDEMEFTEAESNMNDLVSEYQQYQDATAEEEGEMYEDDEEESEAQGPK

Substance	Kd [1]	Kd [2]	Kd [3]	Kd [4]	Kd [5]	Kd [6]	response (3-1) RU [7]	response (2-1) RU [8]	response (4-1) RU [9]
gp120ADA	11.2 nM	5.48 nM and 15.2 nM	5.4 nM and 1.71 nM	5.62 nM and 1.83 nM	10.3 nM	12 nM	–	–	–
gp120IIIB (from UniProt P04578 33-511)	12.3 nM	–	1.69 nM and 7.68 nM	1.16 nM and 8.46 nM	–	10 nM	14 RU and 18.6 RU and 21 RU	35 RU and 44 RU	15 RU and 23.2 RU and 19 RU
